According to patent US20200231681A1 (CHONG KUN DANG PHARMACEUTICAL, published 2020):

Legend:
[1] = molecular target: T1, human c-Met ECD (ACROBiosystems, MET-H5227) (human, UniProt P08581 25-932); test: SPR (BIAcore), antibody captured by anti-human IgG Fc, antigen as analyte, 1:1 Langmuir
T1 construct: extracellular domain; Bought protein
Procedure: (§1) The antibodies were diluted in HBS-EP buffer (0.01 M HEPES pH 7.4, 0.15 M NaCl, 3 mM EDTA and 0.005% (v/v) Surfactant P20) at a concentration of 1-2 μg/ml, after which the resulting antibodies were injected into a CM5 chip with an anti-human Ig Fc fixed thereto at a flow rate of 30 μl/min for 10-120 seconds, and then captured in a range of 150-200 RU. Each antigen was used after being diluted at 10, 5, 2.5, 1.25, 0.625, 0.3125 and 0.15625 nM, after which the resulting antigens were sequentially injected from a lower concentration. Then, the resulting antigens were injected at a flow rate of 30 μl/min for 5 minutes to carry out binding, after which a running buffer was injected thereinto for 10-15 minutes to carry out a dissociation. 15 μl of 10 mM Glycine-HCl (pH 1.5) was used to revive the chip.

[2] = molecular target: T2, mouse EGFR (SiNo. Biological Inc, 51091-M08H) (mouse, UniProt Q01279 25-647); test: ELISA, antigen coated at 2 µg/ml, antibody 6.4 pM to 100 nM, anti-human IgG F(ab')2-HRP, TMB, O.D. at 450 nm [panel Mouse EGFR]
T2 construct: extracellular domain
Procedure: (§2) Particularly, mouse c-Met (SiNo. Biological Inc, 50622-M08H), cynomolgus monkey c-Met (SiNo. Biological Inc, 90304-CO8H), human c-Met (R&D Systems, 358-MT), mouse EGFR (SiNo. Biological Inc, 51091-M08H), cynomolgus monkey EGFR (SiNo. Biological, 90285-008B) and human EGFR (Abcam, 155639) antigens were all divided into a 96-well plate at a concentration of 2 μg/ml, after which the resulting plate was reacted at 4° C. overnight.
(§3) Color development was made by using TMB (Sigma, T4444) solution, wherein its value was measured at an optical density of 450 nm and its ELISA results are shown in FIG. 9.

[3] = molecular target: T3, cynomolgus monkey c-Met ECD (SiNo. Biological, 90304-CO8H) (cynomolgus monkey, UniProt A0A2K5UM36 25-932); test: SPR (BIAcore), antibody captured by anti-human IgG Fc, antigen as analyte, 1:1 Langmuir
T3 construct: not shown: The vendor's tag
Procedure: as §1

[4] = molecular target: T4, human EGFR ECD strep (ACROBiosystems, EGR-H5285) (human, UniProt P00533 25-645); test: as above
T4 construct: extracellular domain; Bought protein
Procedure: as §1

[5] = molecular target: T5, cynomolgus monkey EGFR ECD (SiNo. Biological, 90285-008B) (cynomolgus monkey); test: as above
T5 construct: extracellular domain
Procedure: as §1

[6] = molecular target: T6, mouse c-Met (SiNo. Biological Inc, 50622-M08H) (mouse, UniProt P16056 25-931); test: ELISA, antigen coated at 2 µg/ml, antibody 6.4 pM to 100 nM, anti-human IgG F(ab')2-HRP, TMB, O.D. at 450 nm [panel Mouse cMet]
T6 construct: extracellular domain
Procedure: as §2, §3

| Kd [1] [nM] | koff [1] [s⁻¹] | kon [1] [M⁻¹ s⁻¹] | binding result [2] | Kd [3] [nM] | koff [3] [s⁻¹] | kon [3] [M⁻¹ s⁻¹] | Kd [4] [nM] | koff [4] [s⁻¹] | kon [4] [M⁻¹ s⁻¹] | Kd [5] [nM] | koff [5] [s⁻¹] | kon [5] [M⁻¹ s⁻¹] | binding result [6] | Binder |
| --- | --- | --- | --- | --- | --- | --- | --- | --- | --- | --- | --- | --- | --- | --- |
| 0.0999 | 8.3e-05 | 831000 | – | – | – | – | – | – | – | – | – | – | – | hu8C4 AH71 (antibody, V domains shown) VH: EVQLVESGGGLVQPGGSLRLSCAASGYTFSDYYINWVRQAPGKGLEWIGEIFPGWGNTHFSARFKGRATLSADKSKNTAYLQMNSLRAEDTAVYYCAGQDYGFLYWGQGTLVTVSS VL: DIQMTQSPSSLSASVGDRVTITCGASENIYGALNWYQQKPGKAPKLLIYGATNLADGVPSRFSGSGSGRDFTFTISSLQPEDIATYYCQNVLSSPYTFGQGTKVEIK |
| 0.278 | 0.000204 | 734000 | no binding (tested: 100 nM) | 0.434 | 0.000337 | 777000 | 1.62 | 0.000126 | 77800 | 0.894 | 0.000127 | 142000 | no binding (tested: 100 nM) | hu8C4 × Vectibix scFv bispecific antibody (bispecific antibody, human IgG2) heavy: not shown VL: DIQMTQSPSSLSASVGDRVTITCGASENIYGALNWYQQKPGKAPKLLIYGATNLADGVPSRFSGSGSGRDFTFTISSLQPEDIATYYCQNVLSSPYTFGQGTKVEIK |
